Assays:
[1] = target: T1, human SIRPα v1 ECD recombinant protein (human, UniProt P78324 31-373); assay: competitive ELISA, plate-coated human SIRPα v1 ECD; blocked ligand: mFc tagged human CD47 ECD
T1 construct: extracellular domain; Coated on the ELISA plate
Protocol: (§1) Competitive ELISA assay was used to determine whether the purified chimeric antibodies can block CD47 and SIRPα interaction. Briefly, antibody and mFc tagged human CD47 ECD recombinant protein were co-incubated with ELISA microplate coated human SIRPα v1 ECD or human SIRPα v2 ECD recombinant protein. The concentration of soluble ECD of CD47 is 25 nM, and the concentration of soluble ECD of SIRPα is 20 nM. After washing, HRP labeled anti-mouse Fc 2nd antibody (Sigma) was added and incubated at 37° C. for 1 hour. Then, 100 μl/well of TMB solution (Biotechnology) was added. After incubation for 15 minutes at room temperature, the reaction was stopped by the addition of 50 μl of 1N HCl. OD 450 nm was read. Blocking ratio was determined by blockade of human SIRPα ECD recombinant protein binding to ELISA microplate coated human CD47 ECD recombinant protein. All antibodies as tested can block interaction between human CD47 and different human SIRPα variants.

[2] = target: T2, human SIRPα v1 on CHOK1 cells (human, UniProt P78324 31-504); assay: FACS, CHOK1 cells stably expressing human SIRPα v1
T2 construct: whole, on cells; also called CHOK1-hSIRPα v1; cell surface human SIRPα v1
T2 sequence (P78324 31-504): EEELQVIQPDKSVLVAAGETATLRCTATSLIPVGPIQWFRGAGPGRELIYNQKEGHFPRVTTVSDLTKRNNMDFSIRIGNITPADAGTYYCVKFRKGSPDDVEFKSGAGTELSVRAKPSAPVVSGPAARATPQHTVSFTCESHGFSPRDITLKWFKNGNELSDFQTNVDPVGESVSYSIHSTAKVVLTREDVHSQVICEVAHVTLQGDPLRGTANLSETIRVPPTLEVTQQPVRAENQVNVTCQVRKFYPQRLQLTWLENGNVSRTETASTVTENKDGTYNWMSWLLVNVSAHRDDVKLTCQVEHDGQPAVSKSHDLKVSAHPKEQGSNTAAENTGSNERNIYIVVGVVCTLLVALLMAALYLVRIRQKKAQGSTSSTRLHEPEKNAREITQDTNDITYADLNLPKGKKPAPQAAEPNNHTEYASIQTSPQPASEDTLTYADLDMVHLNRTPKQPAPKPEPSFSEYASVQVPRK
Description: (§2) Binding activity of the purified chimeric antibodies against human SIRPα variants was detected by FACS assay using CHOK1 cells or 293F cells stably expressing human SIRPα v1 and CHOK1 cells stably expressing human SIRPα v2. […] EC₅₀ and top signal calculated using GraphPad Prism9.0.

[3] = target: T3, mFc tagged human SIRPα v1 ECD recombinant protein (human, UniProt P78324 31-373); assay: competitive ELISA; row antibody in excess in solution, coated mAb hu1H9G4
T3 construct: extracellular domain; not shown: mouse Fc tag
T3 sequence (P78324 31-373): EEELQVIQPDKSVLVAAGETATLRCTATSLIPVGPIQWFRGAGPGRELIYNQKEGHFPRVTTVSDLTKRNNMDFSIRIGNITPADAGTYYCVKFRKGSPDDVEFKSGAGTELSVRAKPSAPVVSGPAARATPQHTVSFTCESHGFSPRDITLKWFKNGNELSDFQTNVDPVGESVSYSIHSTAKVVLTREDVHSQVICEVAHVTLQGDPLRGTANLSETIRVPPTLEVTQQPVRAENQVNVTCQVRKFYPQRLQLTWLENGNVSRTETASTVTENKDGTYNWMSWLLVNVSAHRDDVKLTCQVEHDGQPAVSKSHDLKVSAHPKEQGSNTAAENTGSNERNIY
Protocol: (§3) Competitive ELISA assay was used for epitope binning of purified chimeric antibodies. Briefly excessive competitor antibody and mFc tagged human SIRPα v1 ECD recombinant protein were co-incubated with ELISA microplate coated antibody. After washing, HRP labeled anti-mouse Fc 2nd antibody (Sigma) was added and incubated at 37° C. for 1 hour. Then, 100 μl/well of TMB solution (Biotechnology) was added. After incubation for 15 minutes at room temperature, the reaction was stopped by the addition of 50 μl of 1N HCl. OD 450 nm was read. Competition ratio was calculated. The antibodies that can compete each other for binding to SIRPα may have related binding epitopes.

[4] = target: T3, mFc tagged human SIRPα v1 ECD …; assay: competitive ELISA; row antibody in excess in solution, coated mAb 042c
Protocol: as §3

[5] = target: T3, mFc tagged human SIRPα v1 ECD …; assay: competitive ELISA; row antibody in excess in solution, coated mAb 025c
Protocol: as §3

[6] = target: T4, human SIRPα v2 on CHOK1 cells (human, UniProt P78324 31-504); assay: FACS, CHOK1 cells stably expressing human SIRPα v2
T4 construct: whole, on cells; also called CHOK1-hSIRPα v2; cell surface human SIRPα v2
T4 sequence (P78324 other isoform, or with tags, fused parts or gaps limits assumed): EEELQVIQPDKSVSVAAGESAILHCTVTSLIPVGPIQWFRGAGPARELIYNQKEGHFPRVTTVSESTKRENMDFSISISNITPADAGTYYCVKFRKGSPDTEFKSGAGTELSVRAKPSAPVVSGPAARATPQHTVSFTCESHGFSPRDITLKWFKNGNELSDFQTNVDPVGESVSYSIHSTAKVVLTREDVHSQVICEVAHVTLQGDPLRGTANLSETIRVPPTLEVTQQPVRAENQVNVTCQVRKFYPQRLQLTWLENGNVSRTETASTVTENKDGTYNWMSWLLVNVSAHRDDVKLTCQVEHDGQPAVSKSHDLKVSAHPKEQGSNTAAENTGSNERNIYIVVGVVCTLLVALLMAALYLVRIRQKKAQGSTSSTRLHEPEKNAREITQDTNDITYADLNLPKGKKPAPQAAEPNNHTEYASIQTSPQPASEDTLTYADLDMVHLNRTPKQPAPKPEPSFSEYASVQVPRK
Description: as §2

[7] = target: T5, human SIRPα v2 ECD recombinant protein (human); assay: competitive ELISA, plate-coated human SIRPα v2 ECD; blocked ligand: mFc tagged human CD47 ECD
T5 construct: extracellular domain; Coated on the ELISA plate
Protocol: as §1

[8] = target: Full length human SIRPα v1 with beta-gal fragment (ED) at its C-terminal, in K562 cells (human, UniProt P78324 31-504); assay: cell-based or functional assay
Chain of Full length human SIRPα v1 with beta-gal fragment (ED) at its C-terminal, in K562 cells (P78324 31-504): as the sequence (P78324 31-504) above

[9] = target: T6, human PDL1 on cells (human, UniProt Q9NZQ7 19-290); assay: cell-based or functional assay
T6 sequence (Q9NZQ7 19-290): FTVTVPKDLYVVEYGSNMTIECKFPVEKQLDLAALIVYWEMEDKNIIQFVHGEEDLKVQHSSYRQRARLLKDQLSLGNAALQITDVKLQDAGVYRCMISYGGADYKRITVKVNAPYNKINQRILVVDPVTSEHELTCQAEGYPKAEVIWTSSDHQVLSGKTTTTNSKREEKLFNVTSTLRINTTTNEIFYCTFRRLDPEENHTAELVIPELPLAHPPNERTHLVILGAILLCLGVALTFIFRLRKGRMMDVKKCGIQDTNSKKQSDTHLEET

[10] = target: human PDL1 protein (Octet assay) (human, UniProt Q9NZQ7 19-238); assay: Octet; antibody on sensor, PDL1 protein in solution
Chain of human PDL1 protein (Octet assay) (Q9NZQ7 19-238 limits assumed): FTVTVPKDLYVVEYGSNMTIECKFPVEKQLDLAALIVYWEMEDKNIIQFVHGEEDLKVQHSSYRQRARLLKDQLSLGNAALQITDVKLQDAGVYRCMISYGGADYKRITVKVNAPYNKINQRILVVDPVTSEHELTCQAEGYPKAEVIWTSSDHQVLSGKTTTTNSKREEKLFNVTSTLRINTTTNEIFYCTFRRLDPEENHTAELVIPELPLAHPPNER
Protocol: The Anti-PDL1/SIRPα bispecific protein were characterized for binding affinity against human PDL1 using Octet assay (ForeBio) according to manufacturer's manual, separately. Briefly, the antibodies were coupled on sensors and then the sensors were dipped into PDL1 protein gradients (start at 200 nM, with 2-fold dilution and totally 8 doses). Their binding responses were measured in real-time and results were fit globally.

[11] = target: T6, human PDL1 on cells; assay: FACS, Raji cells overexpressing human PDL1, anti-human Fc-PE, MFI
Protocol: Approximately 100,000 Raji cells overexpressing human PDL1 were washed with wash buffer and incubated with 100 ul serial dilution of PDL1/SIRPα bispecific protein for 30 minutes on ice. Cells were then washed twice with wash buffer and incubated with 100 ul of anti-human Fc-PE for 30 minutes on ice. Cells were then washed twice with wash buffer and analyzed on a FACS Canto II analyzer (BD Biosciences). […] The bispecific antibodies ES019-025, ES019-026 bound Raji/hPDL1 similar to anti-PDL1 monoclonal antibody C71 whereas ES019-020, ES019-024 bound Raji/hPDL1 to a lesser extent relative to anti-PDL1, C71.

[12] = target: T1, human SIRPα v1 ECD recombinant protein; assay: competitive ELISA, plate-coated human SIRPα v1 ECD; blocked ligand: mFc tagged human CD47 ECD; remark: listed apart in the source
Protocol: as §1, with “ECD” for “ECD or human SIRPα v2 ECD”, “protein.” for “protein. The concentration of soluble ECD of CD47 is 25 nM, and the concentration of soluble ECD of SIRPα is 20 nM.”, “protein.” for “protein. All antibodies as tested can block interaction between human CD47 and different human SIRPα variants.”

T1 sequence (P78324 31-373): as the sequence (P78324 31-373) above

EC50 (read off the curve) [9] [nM] | Kd [10] [nM] | koff [10] [s⁻¹] | kon [10] [M⁻¹ s⁻¹] | EC50 (read off the curve) [11] [nM] | Binder | also measured
– | – | – | – | – | Anti-SIRPα antibody C73 (antibody, human IgG4, V domains shown, Mouse variable regions; also called 073c; 073C) VH: QIQLVQSGPELKKPGETVKISCKASGYTFTTYGMSWVKQAPGKGLKWMVWINTYSGVPTYADDFKGRFAFSLETSASTSYLQINNLKNEDTATYFCARDPHYYGSSPAWFVYWGQGTLVTVSA VL: DIVMTQSQKFMSTTIGDRVSITCEASQIVGIAVAWYQQKPGQSPKLLIYSASNRYTGVPDRFTGSGSGTDFTLTISNMQSEDLANYFCQQYSAYPFTFGSGTKLEVK | IC50 [1]: 2.74 nM; TOP blocking [1]: 95.1%; EC50 [2]: 1.5 nM; TOP MFI [2]: 67800 MFI; % Competition [3]: 37.7%; % Competition [4]: 93.6%; % Competition [5]: 9.1%; EC50 [6]: 2.12 nM; TOP MFI [6]: 47300 MFI; IC50 [7]: 4.92 nM; TOP blocking [7]: 82.8%; IC50 (SHP-1 recruitment blocking) [8]: 5.66 nM; TOP blocking (SHP-1 recruitment) [8]: 51.2%
~2 | 5.31 | 0.00501 | 942000 | ~0.2 | Anti-PDL1 antibody C71 (antibody, V domains shown, Heavy chain antibody (single domain variable region); also called Anti-PDL1, C71) VH: EVQVVESGGGLVQSGGSLKLSCAGSGFTESAGFMVWHRQVPGKERELVALIATPSGSTNYADSVKGRFTISRDNGKNTVYLQMNSLKPEDTAVYYCNIRGYWGQGTLVTVSS | –
~3 | 5.54 | 0.00509 | 918000 | ~0.6 | Anti-PDL1/SIRPα bispecific antibody ES019-020 (bispecific antibody, not shown: small tags and cut ends; a dimerising Fc or GST) light (part 1 of 2): QIVLTQSPAIMSASPGEKVTLTCSASSSVSSSYLYWYQQKPGSSPKLWIYSTSNLASGVPARFSGSGSGTSYSLTISSMEAEDAASYFCHQWSSYPYTFGGGTKLEIK light (part 2 of 2): EVQVVESGGGLVQSGGSLKLSCAGSGFTESAGFMVWHRQVPGKERELVALIATPSGSTNYADSVKGRFTISRDNGKNTVYLQMNSLKPEDTAVYYCNIRGYWGQGTLVTVSS heavy: EVQLQQSGAELVKPGASVKLSCTASGFNIKDYYMHWVKQRTEQGLEWIGRIDPEDGETKYAPKFQGKATITADTSSNTAYLQLSSLTSEDTAVYYCDRGLAYWGQGTLVTVSA | –
~2 | 6.56 | 0.00603 | 920000 | ~0.6 | Anti-PDL1/SIRPα bispecific antibody ES019-024 (bispecific antibody, not shown: a dimerising Fc or GST) light: QIVLTQSPAIMSASPGEKVTLTCSASSSVSSSYLYWYQQKPGSSPKLWIYSTSNLASGVPARFSGSGSGTSYSLTISSMEAEDAASYFCHQWSSYPYTFGGGTKLEIK heavy (part 1 of 2): EVQLQQSGAELVKPGASVKLSCTASGFNIKDYYMHWVKQRTEQGLEWIGRIDPEDGETKYAPKFQGKATITADTSSNTAYLQLSSLTSEDTAVYYCDRGLAYWGQGTLVTVSA heavy (part 2 of 2): EVQVVESGGGLVQSGGSLKLSCAGSGFTESAGFMVWHRQVPGKERELVALIATPSGSTNYADSVKGRFTISRDNGKNTVYLQMNSLKPEDTAVYYCNIRGYWGQGTLVTVSS | –
– | – | – | – | – | Anti-SIRPα antibody C35 (antibody, V domains shown, Tested as purified chimeric antibody; also called 035) VH: QIQLVQSGPELRKPGETVKISCKASGYSFTNYAMNWVKQAPGKVLKWMGFINTYTGEPTYADDFKGRFAFSLETSASTAYLQINNLKNEDTATYFCTRTRGYYDFDGGAFDYWGQGTSLTVSS VL: DIVMTQSQKFMSTSIGDRVSVTCKASQNVGTHLAWYQQKPGQSPKALIFSASYRYIGVPDRFTGSGSGTDFTLTITNVQSEDLAEYFCQQYNTYPLTFGAGTKLELK | IC50 (read off the curve) [12]: ~2 nM
